Assay results from patent publication US20100136594.

Columns and labels:
[1] = biological target: T1, 20-mer peptide substrate GEIIGGTECKPHSRPYMAYL (SEQ ID NO: 1)
T1 chain: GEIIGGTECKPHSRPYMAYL

[2] = biological target: T2, Dipeptide substrate Gly-Arg labeled with alpha-methylcoumarin (AMC)
T2 chain: GR

B1: Dipeptidyl peptidase I (DPPI) (protein)
chain 1: not shown
chain 2: LPTSWDWRNVHGINFVSPVRNQASCGSCYSFASMGMLEARIRILTNNSQTPILSPQEVVSCSQYAQGCEGGFPYLIAGKYAQDFGLVEEACFPYTGTDSPCKMKEDCFRYYSSEYHYVGGFYGGCNEALMKLELVHHGPMAVAFEVYDDFLHYKKGIYHHTGLR
chain 3: not shown
**Q.** Which results are given for B1?
**A.** KM [1]: 62 µM; Kcat [1]: about 62 µM, 1.15 sec^-1, and 1.95×10^4 M^-1sec^-1, respectively; kcat (Mmin^-1) [1]: 1.15 s⁻¹; KM [2]: 64 µM; kcat (Mmin^-1) [2]: 94.5 s⁻¹
